Measurements reported in US7163817.

Key:
[1] = molecular target: FBD(4,5)-SK chimeric protein
[2] = molecular target: FBD(4,5)-SK-FBD(4,5) chimeric protein
[3] = molecular target: T1, Met-SK (recombinant SK purified from E. coli)
T1 chain: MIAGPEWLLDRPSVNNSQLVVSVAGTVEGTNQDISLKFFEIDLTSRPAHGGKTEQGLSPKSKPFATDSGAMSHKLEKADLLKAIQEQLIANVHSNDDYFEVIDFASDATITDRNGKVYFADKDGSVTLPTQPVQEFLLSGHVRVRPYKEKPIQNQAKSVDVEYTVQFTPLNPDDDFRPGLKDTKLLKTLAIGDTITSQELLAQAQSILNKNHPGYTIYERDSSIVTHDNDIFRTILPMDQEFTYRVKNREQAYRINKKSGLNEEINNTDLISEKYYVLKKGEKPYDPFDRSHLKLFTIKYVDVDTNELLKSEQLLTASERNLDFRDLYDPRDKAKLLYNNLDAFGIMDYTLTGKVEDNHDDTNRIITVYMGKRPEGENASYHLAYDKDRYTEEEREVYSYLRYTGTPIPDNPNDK

[4] = molecular target: T2, SK-FBD(1,2) chimeric protein
T2 chain: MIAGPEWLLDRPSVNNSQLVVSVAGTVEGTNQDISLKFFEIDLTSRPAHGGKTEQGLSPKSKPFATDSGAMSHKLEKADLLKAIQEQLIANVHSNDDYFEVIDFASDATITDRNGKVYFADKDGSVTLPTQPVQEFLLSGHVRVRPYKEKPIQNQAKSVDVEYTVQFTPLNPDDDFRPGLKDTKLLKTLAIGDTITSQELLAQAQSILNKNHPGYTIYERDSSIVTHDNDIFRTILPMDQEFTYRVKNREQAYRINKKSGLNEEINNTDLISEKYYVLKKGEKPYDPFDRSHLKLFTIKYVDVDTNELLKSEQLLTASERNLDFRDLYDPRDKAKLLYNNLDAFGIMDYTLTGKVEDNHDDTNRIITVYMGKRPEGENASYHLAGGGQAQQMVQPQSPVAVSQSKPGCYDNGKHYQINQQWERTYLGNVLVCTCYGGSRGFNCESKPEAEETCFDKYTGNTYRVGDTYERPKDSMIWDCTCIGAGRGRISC

[5] = molecular target: SK-FBD(4,5) chimeric protein, SK[residues 1-383]-(gly-gly-gly)-[FBD(4,5)]
[6] = molecular target: T3, native SK from Streptococcus sp. (ATCC 12449)
T3 chain: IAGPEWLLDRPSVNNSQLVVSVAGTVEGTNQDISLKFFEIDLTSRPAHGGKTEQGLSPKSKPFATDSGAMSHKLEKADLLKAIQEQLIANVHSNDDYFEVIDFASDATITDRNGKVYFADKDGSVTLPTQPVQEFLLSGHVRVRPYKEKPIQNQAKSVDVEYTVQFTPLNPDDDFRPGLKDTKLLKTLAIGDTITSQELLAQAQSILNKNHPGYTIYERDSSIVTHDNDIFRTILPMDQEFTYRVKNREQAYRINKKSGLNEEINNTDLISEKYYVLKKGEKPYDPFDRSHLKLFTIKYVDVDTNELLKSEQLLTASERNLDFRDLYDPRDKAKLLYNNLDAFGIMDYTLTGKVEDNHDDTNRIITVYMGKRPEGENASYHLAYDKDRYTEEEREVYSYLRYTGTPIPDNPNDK

B1: human plasminogen (protein)
chain: EPLDDYVNTQGASLFSVTKKQLGAGSIEECAAKCEEDEEFTCRAFQYHSKEQQCVIMAENRKSSIIIRMRDVVLFEKKVYLSECKTGNGKNYRGTMSKTKNGITCQKWSSTSPHRPRFSPATHPSEGLEENYCRNPDNDPQGPWCYTTDPEKRYDYCDILECEEECMHCSGENYDGKISKTMSGLECQAWDSQSPHAHGYIPSKFPNKNLKKNYCRNPDRELRPWCFTTDPNKRWELCDIPRCTTPPPSSGPTYQCLKGTGENYRGNVAVTVSGHTCQHWSAQTPHTHNRTPENFPCKNLDENYCRNPDGKRAPWCHTTNSQVRWEYCKIPSCDSSPVSTEQLAPTAPPELTPVVQDCYHGDGQSYRGTSSTTTTGKKCQSWSSMTPHRHQKTPENYPNAGLTMNYCRNPDADKGPWCFTTDPSVRWEYCNLKKCSGTEASVVAPPPVVLLPDVETPSEEDCMFGNGKGYRGKRATTVTGTPCQDWAAQEPHRHSIFTPETNPRAGLEKNYCRNPDGDVGGPWCYTTNPRKLYDYCDVPQCAAPSFDCGKPQVEPKKCPGRVVGGCVAHPHSWPWQVSLRTRFGMHFCGGTLISPEWVLTAAHCLEKSPRPSSYKVILGAHQEVNLEPHVQEIEVSRLFLEPTRKDIALLKLSSPAVITDKVIPACLPSPNYVVADRTECFITGWGETQGTFGAGLLKEAQLPVIENKVCNRYEFLNGRVQSTELCAGHLAGGTDSCQGDSGGPLVCFEKDKYILQGVTSWGLGCARPNKPGVYVRVSRFVTWIEGVMRNN
[1]
  Kplg (Km for HPG), steady-state HPG activation, chromogenic one-stage assay, linear phase after the lag: 0.16 µM
[2]
  Kplg (Km for HPG), steady-state HPG activation, chromogenic one-stage assay, linear phase after the lag: 0.2 µM
[3]
  Kplg (Km for HPG), steady-state HPG activation, chromogenic one-stage assay: 0.18 µM
[4]
  Kplg (Km for HPG), steady-state HPG activation, chromogenic one-stage assay, linear phase after the lag: 0.18 µM
[5]
  Kplg (Km for HPG), steady-state HPG activation, chromogenic one-stage assay, linear phase after the lag: 0.15 µM
[6]
  Kplg (Km for HPG), steady-state HPG activation, chromogenic one-stage assay: 0.14 µM
